Data from paper doi:10.1101/847806 (bioRxiv, 2019).
Each block holds one binder with its values, some of them ahead of it.

What was measured:
[1] = biological target: OTUB1 (C91S), catalytically inactive mutant (UniProt Q96FW1 1-271, C91S); test: ITC
[2] = biological target: OTUB1 wild-type (UniProt Q96FW1 1-271); test: ITC
Chain of OTUB1 wild-type (Q96FW1 whole entry): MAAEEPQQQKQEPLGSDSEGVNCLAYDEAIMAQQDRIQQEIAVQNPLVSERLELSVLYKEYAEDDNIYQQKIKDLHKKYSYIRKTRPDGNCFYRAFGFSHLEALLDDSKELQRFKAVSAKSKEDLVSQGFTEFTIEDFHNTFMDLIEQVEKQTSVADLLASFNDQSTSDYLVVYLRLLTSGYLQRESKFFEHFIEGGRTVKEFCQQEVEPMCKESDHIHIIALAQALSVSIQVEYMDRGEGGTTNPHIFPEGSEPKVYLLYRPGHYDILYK

Chain of OTUB1 (C91S), catalytically inactive mutant (Q96FW1 whole entry C91S): as the sequence (Q96FW1 whole entry) above, with C91S counted along it

binding result [1]: binds
binding result [2]: binds
B1: UBE2D1 (enzyme)
chain: not shown

Kd [1]: 8.1 µM
B2: UBE2N (enzyme, human, UniProt P61088 1-152, looked up)
chain: MAGLPRRIIKETQRLLAEPVPGIKAEPDESNARYFHVVIAGPQDSPFEGGTFKLELFLPEEYPMAAPKVRFMTKIYHPNVDKLGRICLDILKDKWSPALQIRTVLLSIQALLSAPNPDDPLANDVAEQWKTNEAQAIETARAWTRLYAMNNI

binding result [1]: binds
B3: UBE2E1 (enzyme, human, UniProt P51965 1-193, looked up)
chain: MSDDDSRASTSSSSSSSSNQQTEKETNTPKKKESKVSMSKNSKLLSTSAKRIQKELADITLDPPPNCSAGPKGDNIYEWRSTILGPPGSVYEGGVFFLDITFTPEYPFKPPKVTFRTRIYHCNINSQGVICLDILKDNWSPALTISKVLLSICSLLTDCNPADPLVGSIATQYMTNRAEHDRMARQWTKRYAT
